{"source": "paper PMC5641120", "about": "(Oncotarget, 2017)", "target": "human PD-1 (residues 33–150, Cys93 exchanged to serine) (human, UniProt Q15116 33-150, Cys93 exchanged to serine, uniform 15N labelling)", "sequence (Q15116 other isoform, or with tags, fused parts or gaps Cys93 exchanged to serine | Cys93 exchanged to serine)": "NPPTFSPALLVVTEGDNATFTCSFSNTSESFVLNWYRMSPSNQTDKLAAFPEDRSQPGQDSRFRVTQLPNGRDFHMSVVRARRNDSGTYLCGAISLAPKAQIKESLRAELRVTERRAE", "assay": "NMR titration; 1H-15N HMQC, 300K; AIDA: 15N-labeled PD-1 (0.2 mM) slightly overtitrated with unlabeled PD-L1; for the mutants also NMR-monitored direct titration; PBS pH 7.4 (PD-L1) or 25 mM sodium phosphate, 100 mM NaCl pH 6.4 (PD-1)", "conditions": "both partners purified"}
{"binder": "human PD-L1 (residues 18–134, C-terminal His-tag) (domain or fragment, NTA-Atto 647 N fluorescent dye on the His-tag (flow cytometry only); uniform 15N labelling (NMR titration with compounds only), PD-L1, human, residues 18-134 (Ig-like V-type domain); also called sPD-L1; soluble PD-L1; source: expressed and purified as described previously [26]; 15N labelling in M9 minimal medium; not shown: His-tag, C-terminal, kept) AFTVTVPKDLYVVEYGSNMTIECKFPVEKQLDLAALIVYWEMEDKNIIQFVHGEEDLKVQHSSYRQRARLLKDQLSLGNAALQITDVKLQDAGVYRCMISYGGADYKRITVKVNAPY", "values": [{"measurement": "binding result", "value": "binds"}]}
